# Measurements from publication PMC6187371.
# Legend:
# [1] = target: duligotuzumab memAb; test: single molecule localization microscopy
# [2] = target: duligotuzumab meFab; test: single molecule localization microscopy
substance,measurement,setting,value
meditope-Alexa Fluor 647 (peptide),stoichiometry N,[1],2
same,stoichiometry N,[2],1
